Test results: article PMC1260013 (BMC Biochemistry, 2005)
Values joined by “and” are separate entries in the source; they are usually repeats but may differ in a detail not shown here. Equal entries are not always repeated.

B1: Mycobacterium tuberculosis isocitrate dehydrogenase ICD-1 (Rv3339c) (enzyme)
chain: MSNAPKIKVSGPVVELDGDEMTRVIWKLIKDMLILPYLDIRLDYYDLGIEHRDATDDQVTIDAAYAIKKHGVGVKCATITPDEARVEEFNLKKMWLSPNGTIRNILGGTIFREPIVISNVPRLVPGWTKPIVIGRHAFGDQYRATNFKVDQPGTVTLTFTPADGSAPIVHEMVSIPEDGGVVLGMYNFKESIRDFARASFSYGLNAKWPVYLSTKNTILKAYDGMFKDEFERVYEEEFKAQFEAAGLTYEHRLIDDMVAACLKWEGGYVWACKNYDGDVQSDTVAQGYGSLGLMTSVLMTADGKTVEAEAAHGTVTRHYRQYQAGKPTSTNPIASIFAWTRGLQHRGKLDGTPEVIDFAHKLESVVIATVESGKMTKDLAILIGPEQDWLNSEEFLDAIADNLEKELAN
notes: also called M.tb ICD-1; M. tb ICD-1
B2: Mycobacterium tuberculosis isocitrate dehydrogenase ICD-2 (Rv0066c) (enzyme)
chain: MSAEQPTIIYTLTDEAPLLATYAFLPIVRAFAEPAGIKIEASDISVAARILAEFPDYLTEEQRVPDNLAELGRLTQLPDTNIIKLPNISASVPQLVAAIKELQDKGYAVPDYPADPKTDQEKAIKERYARCLGSAVNPVLRQGNSDRRAPKAVKEYARKHPHSMGEWSMASRTHVAHMRHGDFYAGEKSMTLDRARNVRMELLAKSGKTIVLKPEVPLDDGDVIDSMFMSKKALCDFYEEQMQDAFETGVMFSLHVKATMMKVSHPIVFGHAVRIFYKDAFAKHQELFDDLGVNVNNGLSDLYSKIESLPASQRDEIIEDLHRCHEHRPELAMVDSARGISNFHSPSDVIVDASMPAMIRAGGKMYGADGKLKDTKAVNPESTFSRIYQEIINFCKTNGQFDPTTMGTVPNVGLMAQQAEEYGSHDKTFEIPEDGVANIVDVATGEVLLTENVEAGDIWRMCIVKDAPIRDWVKLAVTRARISGMPVLFWLDPYRPHENELIKKVKTYLKDHDTEGLDIQIMSQVRSMRYTCERLVRGLDTIAATGNILRDYLTDLFPILELGTSAKMLSVVPLMAGGGMYETGAGGSAPKHVKQLVEENHLRWDSLGEFLALGAGFEDIGIKTGNERAKLLGKTLDAAIGKLLDNDKSPSRKTGELDNRGSQFYLAMYWAQELAAQTDDQQLAEHFASLADVLTKNEDVIVRELTEVQGEPVDIGGYYAPDSDMTTAVMRPSKTFNAALEAVQG
notes: also called M.tb ICD-2; M. tb ICD-2

What was measured:
[1] = biological target: the molecule itself; assay: SEC; Superdex-200 HR 10/30, room temperature, 2.4 mg/ml recombinant ICD-1, calibrated with molecular-mass standards
[2] = biological target: the molecule itself; assay: SEC; Superose 6 10/300 GL, room temperature, concentrated ICD-2 (~400 ug; 1.06 mg/ml), high salt (1 M NaCl)
SEC = biological target: the molecule itself; assay: SEC
[3] = biological target: the molecule itself; assay: SEC; Superose 6 10/300 GL, room temperature, concentrated ICD-2 (~400 ug; 1.06 mg/ml), low salt (100 mM NaCl)

Protein | stoichiometry N [1] | stoichiometry N [2] | stoichiometry N (SEC) | stoichiometry N [3]
B1 | 4 and 2 | – | – | –
B2 | – | 2 | 3 | 4
